Laboratory results reported in article PMC5342420, “CD109 is identified as a potential nasopharyngeal carcinoma biomarker using aptamer selected by cell-SELEX”.

B1: S3 (FAM-labeled) (ssDNA)
DNA: ATCCAGAGTGACGCAGCATCTGAGAATAGTGGTTTGCTGTATGGTGGGCGTTGAAAGAGGGGTGGACACGGTGGCTTAGT

Legend:
[1] = target: T1, CD109 (endogenous, 5-8F cells) (UniProt Q6YHK3); assay: flow cytometry; details: whole 5-8F cells, on ice, 10% FBS, library background subtracted, Cells: D-PBS (Ca/Mg-free) + 4.5 g/L glucose, 5 mM MgCl2, 0.1 mg/mL yeast tRNA, 1 mg/mL BSA, on ice 0.5 h, EMSA: binding buffer, 4 C, 5% native PAGE in …
T1 sequence: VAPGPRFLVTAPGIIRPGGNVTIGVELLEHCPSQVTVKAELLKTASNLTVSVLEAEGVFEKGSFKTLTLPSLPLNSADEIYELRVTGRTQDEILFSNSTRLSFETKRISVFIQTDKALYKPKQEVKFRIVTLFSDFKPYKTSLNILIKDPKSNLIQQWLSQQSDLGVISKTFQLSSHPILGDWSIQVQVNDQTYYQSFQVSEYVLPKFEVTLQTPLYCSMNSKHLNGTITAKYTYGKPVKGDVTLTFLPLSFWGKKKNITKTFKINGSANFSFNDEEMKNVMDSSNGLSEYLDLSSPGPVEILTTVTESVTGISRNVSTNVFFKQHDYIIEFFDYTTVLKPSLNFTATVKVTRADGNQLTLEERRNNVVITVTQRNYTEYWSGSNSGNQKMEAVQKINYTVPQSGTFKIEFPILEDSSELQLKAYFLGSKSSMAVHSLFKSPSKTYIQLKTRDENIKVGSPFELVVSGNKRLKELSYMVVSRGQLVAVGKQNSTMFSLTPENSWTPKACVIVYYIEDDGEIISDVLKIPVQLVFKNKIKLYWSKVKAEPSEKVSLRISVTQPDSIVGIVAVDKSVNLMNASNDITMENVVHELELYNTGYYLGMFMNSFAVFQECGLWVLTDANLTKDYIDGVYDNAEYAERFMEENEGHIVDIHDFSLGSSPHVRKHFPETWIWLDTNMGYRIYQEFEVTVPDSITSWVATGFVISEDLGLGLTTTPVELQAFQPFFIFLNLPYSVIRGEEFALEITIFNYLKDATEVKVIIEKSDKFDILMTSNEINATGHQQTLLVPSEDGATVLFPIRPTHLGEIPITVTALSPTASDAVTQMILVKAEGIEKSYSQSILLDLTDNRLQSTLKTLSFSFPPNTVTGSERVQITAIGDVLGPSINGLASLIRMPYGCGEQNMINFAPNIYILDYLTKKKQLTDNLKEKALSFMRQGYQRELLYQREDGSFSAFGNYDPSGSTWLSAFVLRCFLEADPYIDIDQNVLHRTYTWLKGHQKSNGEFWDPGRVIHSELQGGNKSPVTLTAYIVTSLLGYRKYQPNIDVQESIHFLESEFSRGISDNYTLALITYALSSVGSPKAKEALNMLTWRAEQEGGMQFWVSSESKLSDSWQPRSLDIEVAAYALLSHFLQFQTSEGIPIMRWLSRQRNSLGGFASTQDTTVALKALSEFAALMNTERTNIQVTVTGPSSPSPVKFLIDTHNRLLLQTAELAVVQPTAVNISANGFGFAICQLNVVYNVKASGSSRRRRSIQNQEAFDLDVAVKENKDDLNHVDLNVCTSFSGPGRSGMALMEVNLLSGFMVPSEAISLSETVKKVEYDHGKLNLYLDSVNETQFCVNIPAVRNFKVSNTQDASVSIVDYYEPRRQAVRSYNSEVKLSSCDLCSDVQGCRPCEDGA

[2] = target: CD109 (recombinant) (Homo sapiens, UniProt Q6YHK3 22-1420); assay: EMSA; 4 C; Cells: D-PBS (Ca/Mg-free) + 4.5 g/L glucose, 5 mM MgCl2, 0.1 mg/mL yeast tRNA, 1 mg/mL BSA, 10% FBS, on ice 0.5 h; EMSA: binding buffer, 4 C, 5% native PAGE in; details: protein: commercial; label: FAM

Row | Molecule | Kd [1] | binding result [2]
1 | ATCCAGAGTGACGCAGCATCTGAGAATAGTGGTTTGCTGTATGGTGGGCGTTGAAAGAGGGGTGGACACGGTGGCTTAGT [S3 (FITC-labeled)] | 11.9 nM | 
2 | B1 |  | binds
